The target in assay [1] is T1, PD1 naturally expressed by activated human lymphocytes (PHA-activated PBMC) (human, UniProt Q15116 25-288). Briefly: cell-based or functional assay.
The target of assay [2] is T2, human CD28-hFc (human, UniProt P10747 19-152).
T2 construct: Commercial protein; also called CD28 (ACRO); not shown: human Fc (hFc)
The assay can be described thus: ELISA, antigen coated at 1 µg/mL. An excerpt:
(§1) A horse radish peroxidase (HRP)-coupled anti-human IgG (F) was used as the secondary antibody. After developed with TMB and terminated, it was read for an OD450 value with a microplate reader.

The target of assay [3] is T3, human ICOS-hFc (human, UniProt Q9Y6W8 21-140).
T3 construct: Commercial protein; also called ICOS (ACRO); not shown: human Fc (hFc)
T3 sequence (looked up): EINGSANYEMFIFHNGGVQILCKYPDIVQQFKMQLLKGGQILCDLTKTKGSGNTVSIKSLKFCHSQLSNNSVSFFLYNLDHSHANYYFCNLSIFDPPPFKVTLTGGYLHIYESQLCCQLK
Briefly: ELISA, antigen coated at 1 µg/mL.
Description: as §1

Assay [4] has as its target T4, human CTLA4-hFc (human, UniProt P16410 37-162, limits assumed).
T4 construct: Commercial protein; also called CTLA-4 (ACRO); not shown: human Fc (hFc)
Briefly: ELISA, antigen coated at 1 µg/mL.
Description: as §1

Assay [5] has as its target T5, recombinant human PD-1 expressed on the surface of CHO cells (CHO-hPD1) (human, UniProt Q15116 25-288).
T5 construct: whole, on cells; also called CHO-PD1; hPD1-transfected CHO cells
The assay can be described thus: flow cytometry on CHO-hPD1 cells. On the procedure: (§2) A CHO (Chinese Hamster Ovary Cells) cell line, CHO-hPD1, capable of expressing a recombinant human PD-1 on the cell surface, and a CHO cell line, CHO-cynoPD1, capable of expressing a monkey PD1 on the cell surface were prepared by recombinant technology. […] The specific method was: In order to evaluate the binding of the humanized antibody to the CHO-hPD1, 2×10⁵ CHO-hPD1 cells and the humanized antibody diluted in concentration gradient (with an initial concentration of 30 μg/mL, and diluted in 3-fold gradient) were added into a 96-well plate, and incubated at 4° C. for 30 minutes. The cells were washed once with a buffer (PBS containing 3% BSA) and then added with a PE-labeled anti-human IgG (Fc) Ab (Biolegend) fluorescent secondary antibody, incubated at 4° C. for 30 minutes, then washed once with the buffer and subsequently resuspended in PBS. Thereafter, the cell suspension was subjected to flow cytometric analysis by CytoFlex (Beckman flow cytometer), and the quantity of the antibody bound to the cells was measured according to the mean fluorescence intensity (MFI) of the staining. The same method was used for evaluating the binding of the humanized antibody to the CHO-cyno cells.

Assay [6] has as its target T6, monkey PD1 expressed on the surface of CHO cells (CHO-cynoPD1) (monkey).
T6 construct: whole, on cells
The assay can be described thus: flow cytometry on CHO-cynoPD1 cells. How it is done:
as §2

The target of assay [7] is T1, PD1 naturally expressed by activated …. Briefly: flow cytometry on PHA-activated human PBMC. How it is done: After being obtained from fresh human peripheral blood by gradient centrifugation of lymphatic separation medium, the PBMCs were adjusted to the density of 1×10⁶ cells/mL and inoculated into T75, and meanwhile added with PHA-L (Sigma) at a final concentration of 1 μg/mL to stimulate the proliferation of lymphocytes. After being allowed to stand in an incubator at 37° C. and 5% CO₂ for 3 days, the cell suspension was taken out and centrifuged. The supernatant was discarded, and the precipitate was resuspended in a buffer (PBS containing 3% BSA) and added into a 96-well U-shaped plate at 2E5/well, then added with different concentration gradients of the humanized antibody, incubated at 4° C. for 30 minutes, and then centrifuged at 300 g for 5 minutes. The cells were washed once with the buffer, and added with a PE-labeled goat anti-human IgG fluorescent antibody (Biolegend), and incubated at 4° C. for 30 minutes. Then cells were centrifuged and washed once, resuspended in PBS, and subsequently analyzed by a CytoFlex flow cytometer to detect the quantity of the antibody bound to the PBMC.

The next assay concerns the target T7, human PD-1-hFc (human, UniProt Q15116 25-167).
T7 construct: Commercial protein; also called PD-1 (ACRO); not shown: human Fc (hFc)
Briefly: ELISA, antigen coated at 1 µg/mL, antibody 10 µg/mL.
Description: as §1

Assay [8] has as its target T2, human CD28-hFc. The description is as above.
Description: as §1

Assay [9] has as its target T3, human ICOS-hFc. The assay is described as above.
Description: as §1

Assay [10] concerns the target T4, human CTLA4-hFc. The assay is described as above.
Description: as §1

Assay [11] has as its target T8, PD-1-his (ACRO) recombinant protein (UniProt Q15116 25-167).
T8 construct: Commercial protein; not shown: his tag
Briefly: BLI (ForteBio Octet), PD-1-his loaded on sensor, antibody in solution. How it is done: Finally, analysis was conducted by utilizing a kinetic model, and data processing was conducted.

Assay [12] has as its target T5, recombinant human PD-1 expressed on the …. The assay can be described thus: flow cytometry, blocking of PD-L1-mFc (0.2 µg/mL) binding to CHO-hPD1. On the procedure: (§3) The ability of the anti-PD-1 humanized antibody to block the binding of the ligand to a transfected CHO cells which could stably express PD-1 on the surface was analyzed by a flow cytometer.
(§4) The CHO-PD1 cells were resuspended with a buffer (PBS containing 3% BSA), and adjusted to the density of 2×10⁶ cells/mL. The cell suspension was added into a 96-well U-shaped plate at 100 μL/well and centrifuged at 300 g for 5 minutes, and then the supernatant was discarded.
(§5) The cells were centrifuged at 300 g for 5 minutes, washed once with the buffer, added with a PE-labeled goat anti-mouse IgG fluorescent antibody (Biolegend), and incubated at 4° C. for 30 minutes. The cells were centrifuged and washed once, then resuspended in PBS, and subsequently analyzed by a CytoFlex flow cytometer to detect the quantity of the ligand protein bound to the cells, and calculate the IC₅₀ value of the PD-1 antibody in blocking the binding.

Assay [13] shares this target. Briefly: flow cytometry, blocking of PD-L2-mFc (0.2 µg/mL) binding to CHO-hPD1. How it is done:
as §3, §4, §5

Substitutions are numbered along the chain they refer to. Where only a bound is given, the exact number is not on record here.

T7 sequence (Q15116 25-167 limits assumed): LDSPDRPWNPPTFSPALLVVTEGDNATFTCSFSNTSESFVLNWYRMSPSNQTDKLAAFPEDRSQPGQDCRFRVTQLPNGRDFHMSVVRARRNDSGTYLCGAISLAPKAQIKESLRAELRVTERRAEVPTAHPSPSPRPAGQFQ
T8 sequence (Q15116 25-167 limits assumed): as above
T5 sequence (Q15116 25-288): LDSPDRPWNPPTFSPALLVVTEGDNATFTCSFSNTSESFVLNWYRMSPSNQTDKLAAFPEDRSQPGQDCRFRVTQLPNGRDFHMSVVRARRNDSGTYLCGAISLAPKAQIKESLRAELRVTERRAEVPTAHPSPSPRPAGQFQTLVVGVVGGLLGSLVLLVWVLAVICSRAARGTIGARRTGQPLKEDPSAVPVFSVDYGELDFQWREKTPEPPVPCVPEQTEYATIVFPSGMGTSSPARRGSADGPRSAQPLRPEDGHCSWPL
T1 sequence (Q15116 25-288): as above
T4 sequence (P16410 37-162 limits assumed): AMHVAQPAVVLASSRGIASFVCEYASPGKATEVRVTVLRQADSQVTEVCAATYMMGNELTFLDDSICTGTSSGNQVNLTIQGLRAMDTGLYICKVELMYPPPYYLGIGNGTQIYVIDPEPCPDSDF

B1: anti-PD-1 humanized antibody c43 (antibody, V domains shown)
VH: QVQLVQSGAEVKKPGASVKVSCKASGYTFTTYYMYWVRQAPGQGLEWIGGINPSNGGTNYAEKFKGRVTLTVDTSTSTAYMELSSLRSEDTAVYYCTRRDSNYDGGFDYWGQGTTVTVSS
VL: DIQMTQSPSSLSASVGDRVTITCRASKSVSTSGYSYMHWYQQKPGKAPKLLIYLAYHLESGVPSRFSGSGSGTDFTLTISSLQPEDFATYYCQHSWELPITFGQGTKLEIKR
On to B1, for which the “IFNγ EC50 (mixed lymphocyte reaction)” value in assay [1] is 2.73 nM. The “IL2 EC50 (mixed lymphocyte reaction)” value in assay [1] turned out to be 2.79 nM. The binding result in the assay with human CD28-hFc [2], with human ICOS-hFc [3] and with human CTLA4-hFc [4] was “no binding (tested: 10 µg/mL)” throughout. For the same molecule, the EC50 is 1.58 nM in assay [5], 0.894 nM in [6] and 0.281 nM in assay [7]. Moreover, the OD450 amounted to 1.23 OD450 with human PD-1-hFc, 0.189 OD450 with human CD28-hFc [8], 0.131 OD450 with human ICOS-hFc [9] and 0.255 OD450 with human CTLA4-hFc [10]. Moreover, the Kd in assay [11] was under 0.001 nM. Further, the koff in assay [11] was under 1e-07 s⁻¹. In [11], the kon was 984000 M⁻¹ s⁻¹. The IC50 in [12] was 3.14 nM; in assay [13], 7.95 nM.

B2: anti-PD-1 humanized antibody c22 (antibody, V domains shown)
VH: B1 VH with I48M, Y60F, A61N, G66S, L70M, T74K
VL: B1 VL with M4L, V19A, L82V
Take B2: the “IFNγ EC50 (mixed lymphocyte reaction)” value in assay [1] turned out to be 0.727 nM. Besides, in assay [1], the “IL2 EC50 (mixed lymphocyte reaction)” value stood at 13.3 nM. Moreover, the binding result in the assay with human CD28-hFc [2], with human ICOS-hFc [3] and with human CTLA4-hFc [4] was “no binding (tested: 10 µg/mL)” in each case. In addition, the EC50 in assay [5] came out at 1.68 nM; in assay [6], 0.63 nM; in assay [7], 0.141 nM. Moreover, the OD450 worked out at 1.33 OD450 in the assay with human PD-1-hFc, 0.18 OD450 with human CD28-hFc [8], 0.117 OD450 in the assay with human ICOS-hFc [9] and 0.209 OD450 with human CTLA4-hFc [10]. For the same molecule, in [11], the Kd was under 0.001 nM. Also, the koff in [11] was under 1e-07 s⁻¹. For the same molecule, the kon in assay [11] came out at 985000 M⁻¹ s⁻¹. Further, the values for the IC50 in assay [12] and in assay [13] were 3.1 nM and 6.88 nM, respectively.

B3: anti-PD-1 humanized antibody c53 (antibody, V domains shown)
VH: B1 VH with I48M, E62Q, K65Q, V68A, L70M
VL: B1 VL
As to B3, the “IFNγ EC50 (mixed lymphocyte reaction)” value in [1] worked out at 6.65 nM. Besides, the “IL2 EC50 (mixed lymphocyte reaction)” value in assay [1] was determined as 1.88 nM. Besides, the binding result with human CD28-hFc [2], with human ICOS-hFc [3] and in the assay with human CTLA4-hFc [4] was “no binding (tested: 10 µg/mL)” in each case. The EC50 in [5] worked out at 1.71 nM; in [6], 0.743 nM; in assay [7] it was 0.213 nM. For the same molecule, the OD450 is 1.48 OD450 with human PD-1-hFc, 0.176 OD450 with human CD28-hFc [8], 0.133 OD450 with human ICOS-hFc [9] and 0.239 OD450 with human CTLA4-hFc [10]. The Kd in assay [11] was under 0.001 nM. Besides, the koff in assay [11] is under 1e-07 s⁻¹. The kon in [11] is 979000 M⁻¹ s⁻¹. The results for the IC50 in assay [12] and in assay [13] were 3.02 nM and 7.05 nM, respectively.

The values above are taken from patent US20240287184A1 (GUANGDONG FAPON BIOPHARMA, published 2024).
